Measured values: paper PMC10293810

Target: T1, TREX1 catalytic core (murine) (UniProt Q91XB0)
T1 sequence: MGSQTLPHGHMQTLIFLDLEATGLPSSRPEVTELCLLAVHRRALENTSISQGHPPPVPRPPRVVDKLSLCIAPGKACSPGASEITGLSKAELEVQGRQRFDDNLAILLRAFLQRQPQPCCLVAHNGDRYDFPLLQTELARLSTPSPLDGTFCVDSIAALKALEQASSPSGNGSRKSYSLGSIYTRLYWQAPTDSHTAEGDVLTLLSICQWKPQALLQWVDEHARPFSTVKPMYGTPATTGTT
Test: fluorescence polarization
Conditions: FP with 5 nM ligand at 25 C (some FPCD at 4 C); buffer for MS2-CP (BB6): 100 mM Tris pH 7.5, 10 mM MgCl2, 80 mM KCl, 0.1 mg/mL BSA; other buffers not in …

GAAGTGCCCGTGACGCGCGCGACGCCAGCCGACGAAGGCGGGACCCAGAGCGCGCGCCGT (double strand) [ds-[F]d(N)60]
Kd: 0.03 µM
